Data reported in the nanobody polyreactivity screen of Harvey et al. (2022).

Experiment: yeast display, Sf9 membrane polyspecificity reagent, FACS + sequencing; frameworks hold sequencing errors
How it was run: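 Genes from sorted yeast were amplified by colony PCR, read by MiSeq 2 × 250 sequencing and filtered on CDR length. These cells carried a synthetic nanobody library in Saccharomyces cerevisiae BJ5465 and were sorted by FACS into low and high (top ~1%) gates on anti-HA and streptavidin fluorescence. Polyreactivity is labelled according to the gate of origin.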

## QVQLVESGGGLVQAGGSLRLSCAASGGIFVPNAMGWSRQAPGKARELVAAISYSGGRTYYADSVKGRFTISRDNAKNTVYLQMTSLKPEDTAVYYCAAEYWFVYHHYNYWGQGTQVTVSS
  polyreactivity (PSR sort gate): high polyreactivity

## QVQLVESGGGLVQAGGSLRLSCAASGGIFVVYGMGWYRQAPGKERELVAAISWRGGSTYYADSVKGRFTISRDNAKNTVYLQMNSLKPEDTAVSYCAADQYYGGYDYWGQGTQVTVSS
  polyreactivity (PSR sort gate): low polyreactivity

## QVQLVESGGGLVQAGGSLRLSCAASGGIFWRYAMGWYRQAPGKERELVAAISSRGGSTYYADSVKGRFTISRDNAKNTVYLQMNSLKPEDTAVYYCAAAFLSRVQGYDSWGQGTQVTVSS
  polyreactivity (PSR sort gate): high polyreactivity

## QVQLVESGGGLVQAGGSLRLSCAASGGIFYHYTMGWYRQAPGKERELVASIRGSGGRTYYADSVKGRFTLSRDNAKNTVDLQMNSLKPEDTAVYYCNARGSWYQPTYDYWGQGTQVTVST
  polyreactivity (PSR sort gate): high polyreactivity

## QVQLVESGGGLVQAGGSLRLSCAASGGIFYLNAMGWYRQAPRKERELVAAITGTGGNTYYADSVKGRFTISRDNAKNTVYLQMNSLKPEDTAVYYCAAAAIGVGSGPFGIGWEEYYYWGLGTQVTVSS
  polyreactivity (PSR sort gate): low polyreactivity

## QVQLVESGGGLVQAGGSLRLSCAASGGIFYRNAMGWYRQAPGKERELVAAITQSGGRTYYADSVKGRFTISRDNAKNTVYLQMNSLKPEDTAVYYCAARSRKLYGHYRGAYDYWGQGTQVTVSS
  polyreactivity (PSR sort gate): high polyreactivity

## QVQLVESGGGLVQAGGSLRLSCAASGGIFYVNAMGWYRQAPGKERELVAAITSDGVSTYYADSVKGRFTISRDNAKNTVYLQMNSLKPEDTAVYYCAADNGGAGYYYGYVWYDYWGQGTQVTVSS
  polyreactivity (PSR sort gate): low polyreactivity

## QVQLVESGGGLVQAGGSLRLSCAASGGIGSYAMGWYRQAPGKERELVAVITAGGDSTYYADSVKGRFTISRDNAKNTVYLQMNSLKPEDTAVYYCNTVYRSKRYQYDYWGQGTQVTVSS
  polyreactivity (PSR sort gate): high polyreactivity

## QVQLVESGGGLVQAGGSLRLSCAASGGIIDWYVMGWYSQARGKERELVAAISYNGGSTYYADSVKGRFTISRDNAKNTGYLQMNSLKPEDTAVYYCAAAVTWPYRYVWYDYWGQGTQVTVSS
  polyreactivity (PSR sort gate): low polyreactivity

## QVQLVESGGGLVQAGGSLRLSCAASGGIIRTYARGWYRQAPGNETELVAAITTNAGSTYYADSVKGRFTISRDNAKNTVYLQMNSLKPEDTAVYYCAARWYYPYRTRYSASYGYWVQGTQVTVSS
  polyreactivity (PSR sort gate): high polyreactivity

## QVQLVESGGGLVQAGGSLRLSCAASGGIIWAYAMGWYRQAPGKERELVAAISSSTGTTYYADSVKGRFTISRDNAKNTVYLQMNSLKPEDTAVYYCAAYAYIGDYVSYYGGDYWGQGTQVTVSS
  polyreactivity (PSR sort gate): low polyreactivity

## QVQLVESGGGLVQAGGSLRLSCAASGGILDTYAMGWYRQAPGKERELVAAITSGGNTNYADSVKGRFTISRDNAKNTVYLQMNSLKPEDTAVYYCNVVTWYYVFRPWEYDYWGQGSQVTVSS
  polyreactivity (PSR sort gate): low polyreactivity

## QVQLVESGGGLVQAGGSLRLSCAASGGILHGYAMGWYIQEPGKERELVSGITYSGDDTNYADSVKGRFTISRDNAKNTVYLQMNSLKPEDTAVYYCAAGPVWHIFTIDYVSFDDWGQGTQVTVSS
  polyreactivity (PSR sort gate): low polyreactivity

## QVQLVESGGGLVQAGGSLRLSCAASGGILNRYAMGWYRQAPGKERELVAAIRWSGGSTYYADSVKGRFTISRDNAKNTVYLQMNSLKPEDTAVYYCAADVYYYHVLDFDYWGQGTLVTVSS
  polyreactivity (PSR sort gate): low polyreactivity

## QVQLVESGGGLVQAGGSLRLSCAASGGILRQNTMGWYRQAPGKETELVAAISSSGGRTYYADSVKGRFTISRDNAKNTVYLQMNSLKPEDTAVYYCARGYSWSVGYPRVHDMDYWGQGTQVTVSS
  polyreactivity (PSR sort gate): high polyreactivity

## QVQLVESGGGLVQAGGSLRLSCAASGGILWFYAMGWYIQAPGKEREFVAAIDLGGGSTYYADSVKGRFTISRDNAKTTVYLQMNSLKPEDTAVYYCNAETSGHYSTIMDYWGQGTQVTVSS
  polyreactivity (PSR sort gate): low polyreactivity

## QVQLVESGGGLVQAGGSLRLSCAASGGLFKVYGMRLYRQAPGQERELVAAISWTTGGTYYADSVKGRFTISRDNAKNTVYLQMNSLKPEDTAVYYCNAPTWYYSGVRYDYWGQGTQVTVSS
  polyreactivity (PSR sort gate): high polyreactivity

## QVQLVESGGGLVQAGGSLRLSCAASGGNFLAYAMGWYRQAPGKERELVAAITRRGTRTYYADSVKGRFTISRDNAKNTVYLQMNSLKPEDTAVYYCAADYYPASAGFDYWGQGTQVTVSS
  polyreactivity (PSR sort gate): high polyreactivity

## QVQLVESGGGLVQAGGSLRLSCAASGGNFSPNAMGWYRQAPGKERELVAAISSNGGSTNYADSVKGRFTISRDNAKNTVYLKMNSLKPEDTAVYYCAGLQKRRSYWRPFYWGQGTQVTVSS
  polyreactivity (PSR sort gate): low polyreactivity

## QVQLVESGGGLVQAGGSLRLSCAASGGSFIANAMGRYRQAPGTEREVVAAITSGGSTNYADSVKGRFTISRDNAKNTVYLQMNSLKPDDTAVYYCNAEQNPSGLYDYRGVEGEMGYWGQGTQVTVSS
  polyreactivity (PSR sort gate): low polyreactivity

## QVQLVESGGGLVQAGGSLRLSCAASGGSFLVNDMGWYRQAPGTERELVAAITSGGGTYYADSVKGRFTISRDNAKNTVYLQMNSLNPEDTAVYYCARDTYRPIVSNESYGYWGQGTQVTVSS
  polyreactivity (PSR sort gate): low polyreactivity

## QVQLVESGGGLVQAGGSLRLSCAASGGTCGTNAMGWYRQAPGKEREFVAAISRSGGSTNYADSVKGRFTISRDKAKNTVYLQMNSLKPEDTAVYYCATRVIVVPLGGGYYSWGQGTQVTVSS
  polyreactivity (PSR sort gate): high polyreactivity

## QVQLVESGGGLVQAGGSLRLSCAASGGTFAGYAMGWYRQAPGKERELVAAITYRSSTTYYADSVKGRFTISRDNANNTVYLQMNSLKPEDTAVYYCAARTRGTGRNRDYWGQGTQVTVSS
  polyreactivity (PSR sort gate): high polyreactivity

## QVQLVESGGGLVQAGGSLRLSCAASGGTFATYAMGWYRQAPGKEKELVAAISWSGGSTYYADSVKGRFTISRDNAKNTVYLQMNSLKPEDTAVYYCNALPRLGGGAEKLDYWGQGTQVTVSS
  polyreactivity (PSR sort gate): high polyreactivity

## QVQLVESGGGLVQAGGSLRLSCAASGGTFAVNAMGWYRQAPGKEREFVAAISSRGSTYYADSVKGRFTISRDNAKNNVYLQMNSLKPEDTAVYYCAAYRSYWEVYPRMYYWGQGTQVTVSS
  polyreactivity (PSR sort gate): high polyreactivity

## QVQLVESGGGLVQAGGSLRLSCAASGGTFAYYAMGWYRQAPGKERELVAVISRRGTSTYYADSVKGRFTISRDNAKNTVYLQMNSLKPEDTAVYYCNARTWDHPYGYWGQGTQVTVSS
  polyreactivity (PSR sort gate): high polyreactivity

## QVQLVESGGGLVQAGGSLRLSCAASGGTFDVYTMGWYRPAPGKERELVAAISSSGARTYYADSVKGRFTISRDNAKNTVNLQMNSLKPEDTAVFYCATRSLGLRWHYYYWGQGTQVTVSS
  polyreactivity (PSR sort gate): high polyreactivity

## QVQLVESGGGLVQAGGSLRLSCAASGGTFDVYTMGWYRQAPGKERELVAAIDNGGSTNYADSVKGRFTISRDNAKNTVYLQMNSLQPEDTAVYYCAADEVYLFWGIAEFIYDYWGQGTQVTVSS
  polyreactivity (PSR sort gate): low polyreactivity

## QVQLVESGGGLVQAGGSLRLSCAASGGTFEFYTMGLYRQAPGKERELVAVINASGDSTYYADSVKGRFTISRDNAKNTVYLQMNSLKPEDTAVYYCAADHRGEYDYWGQGTQVTVSS
  polyreactivity (PSR sort gate): low polyreactivity

## QVQLVESGGGLVQAGGSLRLSCAASGGTFEPNAMGWYRQPPGKEREFVAAITWNGGRTNYADSVKGRFTISRDNAKNTVYLQMNSLKPEDTAVYYCAARSYTDYNYWGQGTQVTVSS
  polyreactivity (PSR sort gate): high polyreactivity

## QVQLVESGGGLVQAGGSLRLSCAASGGTFESYTMGWYRQAPGKERELVATISTSGGRTYYADSVKGRFTISRDNAKNTVYLQMHSLKPEDTAVYYCNKVSDAYGEYVTLHLDYWGQGTLVTVSS
  polyreactivity (PSR sort gate): low polyreactivity

## QVQLVESGGGLVQAGGSLRLSCAASGGTFFSNAMGWYRQAPGKERELVAGITSGGRTYYADSVKGRFTISRDNAKNTVYLQMNSLKPEDTAVYYCATQSWVRYGQPEFDYWGQGTQVTVSS
  polyreactivity (PSR sort gate): high polyreactivity

## QVQLVESGGGLVQAGGSLRLSCAASGGTFGQYAMGWYRLAPGKERELVAAITSSGGRTYYADSVKGRFTISRDNAKNTVYLQMNSLKPEDTAVYYCAADVQSRYVGEGDYWGQGTQVTVSS
  polyreactivity (PSR sort gate): high polyreactivity

## QVQLVESGGGLVQAGGSLRLSCAASGGTFGRNAMGWYRQAPGKERELVATITRRGGSTYYADSVKGRFTISRDNAKNTVYLQMNSLKPEDTAVYYCAAAGRYSNGTGYGYWGQGTQVTVSS
  polyreactivity (PSR sort gate): high polyreactivity

## QVQLVESGGGLVQAGGSLRLSCAASGGTFGSYARGWYRQAPGNEREFVAAIRRGTSTYYADSVQGRFTISRDNAKNTVYLQMNRLKPEDTEVYYCAATPQAHSERYYYQRKYDYWGQGTQVTVSS
  polyreactivity (PSR sort gate): low polyreactivity

## QVQLVESGGGLVQAGGSLRLSCAASGGTFGTNTMGWYRQAPGKERELVAAISKRGGRTYYADSVKGRFTISRDNAKNTVYLQMNSLKPEDTAVYYCAADTGGNPKYDYWGQGTQVTVSS
  polyreactivity (PSR sort gate): high polyreactivity

## QVQLVESGGGLVQAGGSLRLSCAASGGTFGYYAMGWYRQAPGKERELVAAINRSDGGTYYADSVKGRFTISRDNAKNTVYLQMNSLKPEDTAVYYCNADDFYYDEPYDYWGQGTQVTVSS
  polyreactivity (PSR sort gate): low polyreactivity

## QVQLVESGGGLVQAGGSLRLSCAASGGTFIANAMGWYRQAPGKERELVATINANADTTYYADSVKGRFTISRDNAKNTVYLQMNSLKPEDTAVYYCAAAQRYPIKYYYWGQGTQVTVSS
  polyreactivity (PSR sort gate): low polyreactivity

## QVQLVESGGGLVQAGGSLRLSCAASGGTFKFYAMGWYRQAPGKERELVAAISRRGGNTYYADSVKGRFTISRDNAKNTVYLQMNSLKPEDTAVYYCAVDYRSTGFGYWGQGTQVTVSS
  polyreactivity (PSR sort gate): high polyreactivity

## QVQLVESGGGLVQAGGSLRLSCAASGGTFLAYAMGWYRQAPGKERELVAAITRRGTRTYYADSVKGRFTISRDNANNTVYLQMNSLKPEDTAVYYCAVSGGFYWGQGTQVTVSS
  polyreactivity (PSR sort gate): high polyreactivity

## QVQLVESGGGLVQAGGSLRLSCAASGGTFLGYAMGWYRQAPGKDRELVAAIAASGGNTYYADSVKGRFTISRDNAKNTVYLQMNSLKPEATAVYYGAARQYRSVLKYDYWGQGTQVTVSS
  polyreactivity (PSR sort gate): high polyreactivity

## QVQLVESGGGLVQAGGSLRLSCAASGGTFLYYAMGWYRQAPGKETELVAAISRGGSTHYADSVKGRFTISRDNAKNTVYLQMNSLKPEDTAVYYCAVDGGEFSSYGYWGQGTQVTVSS
  polyreactivity (PSR sort gate): low polyreactivity

## QVQLVESGGGLVQAGGSLRLSCAASGGTFPQYAKGWYRQAPGKEREFVADITTRGGTTYYADSVKGRFTISRDNAKNTVYLQMNSLKPEENAVYYCAADNPADWWGLDYWGQGTQVTVSS
  polyreactivity (PSR sort gate): low polyreactivity
